Assay results published in patent US20140314668A1, “TECHNETIUM-99M LABELED COMPLEX OF GOLD NANOPARTICLE-GOLD BINDING PEPTIDES, AND METHOD OF MAKING AND USING THE SAME” (Korea Atomic Energy Research Institute, priority 2013, published 2014).

Assay: NaCl-induced aggregation method (adsorption of GBP1 on the surface of GNPs, UV-Vis)
Assay type: physicochemical
Protocol: In order to investigate a minimum concentration of GBP1 required for complete adsorption on the surface of gold nanoparticles (GNPs), since it is known that salts such as NaCl induce aggregation of gold and other nanoparitices (H.M.L. M. Y. Lin et al, Nature, 339, 1989, 360-362), an NaCl-induced aggregation method was used, and concentration of GBP1 adsorbed on the surface of GNPs was analyzed.
A variety of concentrations of GBP1 were added to 0.5 mL of GNP solution (O.D.=1.0, D=10 nm) to form a mixture, followed by standing for 10 minutes at room temperature. Next, 10% NaCl solution was added to the mixture so as to have a final concentration of 0.5% in order to induce aggregation of GNPs, followed by standing for 10 minutes at room temperature. Subsequently, in order to protect additional aggregation, 0.1% BSA was added to the resultant, followed by standing for 10 minutes at room temperature. Finally, aggregation degree of GNPs was measured in a wavelength range of 220 to 700 nm by UV-Vis spectrophotometer, and the measurement results are shown in FIG. 1.

Substance: GBP1: synthetic gold binding peptide 1, amino acid sequence (SEQ ID No. 1): MHGKTQATSGTIQS (GBP1)
- GBP1 concentration at which aggregation of GNPs is prevented (0.5 mL GNP solution (O.D.=1.0, D=10 nm), 0.5% NaCl final, room temperature): more than 10 μg/ml
- main surface plasmon band of the GNP solution (red-shifted) (GBP1 concentration of 10 μg/ml or less, in the presence of NaCl): 525 nm
